Measurements as given in patent US20210122826A1 (MIT, published 2021).
Substitutions are numbered along the chain they refer to. Each block holds one binder with its values, some of them ahead of it.

Tests used:
Assay in all cases: flow, Jurkat
Human KLRF1 = target: T1, Human KLRF1 (human, UniProt Q9NZS2 1-231)
T1 construct: also called hKLRF1
T1 sequence: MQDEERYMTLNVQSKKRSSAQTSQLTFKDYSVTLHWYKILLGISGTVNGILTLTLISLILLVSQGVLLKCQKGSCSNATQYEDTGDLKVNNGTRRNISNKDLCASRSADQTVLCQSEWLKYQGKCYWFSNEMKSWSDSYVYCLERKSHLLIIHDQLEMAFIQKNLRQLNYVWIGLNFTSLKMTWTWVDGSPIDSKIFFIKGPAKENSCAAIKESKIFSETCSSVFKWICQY

Human CD94 = target: T2, Human CD94 (human, UniProt Q13241 1-179)
T2 construct: also called hCD94
T2 sequence: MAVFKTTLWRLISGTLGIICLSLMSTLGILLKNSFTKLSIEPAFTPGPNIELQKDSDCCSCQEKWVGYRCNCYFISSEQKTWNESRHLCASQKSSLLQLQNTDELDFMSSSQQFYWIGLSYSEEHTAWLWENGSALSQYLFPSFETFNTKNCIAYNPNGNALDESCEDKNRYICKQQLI

Human KLRF2 = target: T3, Human KLRF2 (human, UniProt D3W0D1 1-207)
T3 construct: also called hKLRF2
T3 sequence: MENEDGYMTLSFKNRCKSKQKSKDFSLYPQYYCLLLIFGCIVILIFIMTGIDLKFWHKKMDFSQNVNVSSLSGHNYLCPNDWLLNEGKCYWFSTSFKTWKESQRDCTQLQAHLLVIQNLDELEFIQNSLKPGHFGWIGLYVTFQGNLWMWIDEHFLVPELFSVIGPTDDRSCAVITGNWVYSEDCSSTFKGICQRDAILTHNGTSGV

Human Clec12B = target: T4, Human Clec12B (human, UniProt Q2HXU8 1-276)
T4 construct: also called hClec12B
T4 sequence: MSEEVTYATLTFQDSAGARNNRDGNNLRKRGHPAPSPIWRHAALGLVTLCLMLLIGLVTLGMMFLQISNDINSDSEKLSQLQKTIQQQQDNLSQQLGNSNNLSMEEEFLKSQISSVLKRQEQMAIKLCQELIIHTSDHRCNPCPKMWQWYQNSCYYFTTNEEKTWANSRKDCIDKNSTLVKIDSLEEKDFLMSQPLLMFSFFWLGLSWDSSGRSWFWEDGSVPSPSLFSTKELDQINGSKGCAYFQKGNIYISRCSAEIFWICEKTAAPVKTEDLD

Human Clec7A = target: T5, Human Clec7A (human, UniProt Q9BXN2 1-247)
T5 construct: also called hClec7A
T5 sequence: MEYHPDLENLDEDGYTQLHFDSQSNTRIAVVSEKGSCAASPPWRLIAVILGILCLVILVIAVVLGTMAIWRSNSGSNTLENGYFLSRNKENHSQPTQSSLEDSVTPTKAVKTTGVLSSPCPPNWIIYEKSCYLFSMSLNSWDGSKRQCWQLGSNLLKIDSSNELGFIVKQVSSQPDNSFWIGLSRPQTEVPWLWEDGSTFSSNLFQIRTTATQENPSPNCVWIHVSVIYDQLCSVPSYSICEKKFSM

Human KLRG1 = target: T6, Human KLRG1 (human, UniProt Q96E93 1-195)
T6 construct: also called hKLRG1
T6 sequence: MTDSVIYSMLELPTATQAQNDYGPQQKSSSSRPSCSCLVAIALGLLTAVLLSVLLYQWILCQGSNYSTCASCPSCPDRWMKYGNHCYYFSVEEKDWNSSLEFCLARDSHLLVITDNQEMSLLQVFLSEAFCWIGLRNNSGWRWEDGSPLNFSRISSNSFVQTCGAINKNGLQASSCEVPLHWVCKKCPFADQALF

Human OLR1 = target: T7, Human OLR1 (human, UniProt P78380 1-273)
T7 construct: also called hOLR1

Human Clec5A = target: T8, Human Clec5A (human, UniProt Q9NY25 1-188)
T8 construct: also called hClec5A
T8 sequence: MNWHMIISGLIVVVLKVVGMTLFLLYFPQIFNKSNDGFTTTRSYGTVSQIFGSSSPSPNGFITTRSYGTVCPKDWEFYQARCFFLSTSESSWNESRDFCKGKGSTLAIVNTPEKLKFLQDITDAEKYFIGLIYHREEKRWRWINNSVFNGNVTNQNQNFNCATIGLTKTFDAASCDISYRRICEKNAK

Human Clec9A = target: T9, Human Clec9A (human, UniProt Q6UXN8 1-241)
T9 construct: also called hClec9A
T9 sequence (Q6UXN8 whole entry): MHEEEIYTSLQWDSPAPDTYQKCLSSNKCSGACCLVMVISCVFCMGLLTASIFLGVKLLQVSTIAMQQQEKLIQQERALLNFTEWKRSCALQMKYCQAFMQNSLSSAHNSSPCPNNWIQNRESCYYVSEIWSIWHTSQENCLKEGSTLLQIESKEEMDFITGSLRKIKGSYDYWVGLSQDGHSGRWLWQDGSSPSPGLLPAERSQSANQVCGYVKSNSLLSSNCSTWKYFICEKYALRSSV

Human CD209 = target: T10, Human CD209 (human, UniProt Q9NNX6 1-404)
T10 construct: also called hCD209
T10 sequence: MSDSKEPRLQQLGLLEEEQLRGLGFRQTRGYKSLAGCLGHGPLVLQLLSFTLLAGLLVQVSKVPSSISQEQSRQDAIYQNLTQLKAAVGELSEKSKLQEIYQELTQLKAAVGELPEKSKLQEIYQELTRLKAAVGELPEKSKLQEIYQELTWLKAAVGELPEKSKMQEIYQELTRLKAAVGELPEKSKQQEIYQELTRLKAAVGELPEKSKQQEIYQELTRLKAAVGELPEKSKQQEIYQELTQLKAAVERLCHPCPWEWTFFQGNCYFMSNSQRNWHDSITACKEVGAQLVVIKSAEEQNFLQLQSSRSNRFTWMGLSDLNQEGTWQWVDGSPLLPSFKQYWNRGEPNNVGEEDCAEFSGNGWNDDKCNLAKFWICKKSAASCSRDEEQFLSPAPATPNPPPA

Human Clec4E = target: T11, Human Clec4E (human, UniProt Q9ULY5 1-219)
T11 construct: also called hClec4E
T11 sequence: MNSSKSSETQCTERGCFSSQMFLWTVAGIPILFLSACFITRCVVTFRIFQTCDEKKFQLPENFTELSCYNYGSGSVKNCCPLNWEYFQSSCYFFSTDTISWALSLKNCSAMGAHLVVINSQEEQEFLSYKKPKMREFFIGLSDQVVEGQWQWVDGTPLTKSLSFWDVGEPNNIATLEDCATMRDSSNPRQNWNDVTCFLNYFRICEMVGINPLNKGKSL

Human Clec10A = target: T12, Human Clec10A (human, UniProt Q8IUN9 1-316)
T12 construct: also called hClec10A
T12 sequence: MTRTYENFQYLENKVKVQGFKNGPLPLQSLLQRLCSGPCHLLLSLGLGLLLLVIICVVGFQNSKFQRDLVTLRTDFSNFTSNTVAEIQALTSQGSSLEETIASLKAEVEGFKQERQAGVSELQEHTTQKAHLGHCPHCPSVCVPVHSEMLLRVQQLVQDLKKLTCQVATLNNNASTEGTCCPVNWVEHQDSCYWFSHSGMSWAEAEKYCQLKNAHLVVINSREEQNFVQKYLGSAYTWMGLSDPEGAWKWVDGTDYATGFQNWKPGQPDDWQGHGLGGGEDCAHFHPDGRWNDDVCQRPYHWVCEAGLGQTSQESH

binding result (Human KLRF1): no binding (tested: 100 nM) | binding result (Human CD94): no binding (tested: 100 nM) | binding result (Human KLRF2): no binding (tested: 100 nM) | binding result (Human Clec12B): no binding (tested: 100 nM) | binding result (Human Clec7A): no binding (tested: 100 nM) | binding result (Human KLRG1): no binding (tested: 100 nM) | binding result (Human OLR1): no binding (tested: 100 nM) | binding result (Human Clec5A): no binding (tested: 100 nM) | binding result (Human Clec9A): no binding (tested: 100 nM) | binding result (Human CD209): no binding (tested: 100 nM) | binding result (Human Clec4E): no binding (tested: 100 nM) | binding result (Human Clec10A): no binding (tested: 100 nM)
B1: KW9.3.3 (antibody, V domains shown)
VH: EVQLVESGGGLVQPGGSLRLSCAASGFTFSSYAMSWVRQAPGKGLEWVSAISGSGGRTYYADSVKGRFTISRDNSKNTLYLQMNSLRAEDTAMYYCARGPGYMYLYGDSFFEYWGQGTLVTVSS
VL: DIQMAQSPSSLSASVGDRVTITCRASQGISSYLNWYQQKPGKAPKLLIYAASSLQSGVPSRFSGSGYGTDFTLTISSLQPEDFATYYCQQSYSTPLTFGQGTKVEIK

binding result (Human KLRF1): no binding (tested: 100 nM) | binding result (Human CD94): no binding (tested: 100 nM) | binding result (Human KLRF2): no binding (tested: 100 nM) | binding result (Human Clec12B): no binding (tested: 100 nM) | binding result (Human Clec7A): no binding (tested: 100 nM) | binding result (Human KLRG1): no binding (tested: 100 nM) | binding result (Human OLR1): no binding (tested: 100 nM) | binding result (Human Clec5A): no binding (tested: 100 nM) | binding result (Human Clec9A): no binding (tested: 100 nM) | binding result (Human CD209): no binding (tested: 100 nM) | binding result (Human Clec4E): no binding (tested: 100 nM) | binding result (Human Clec10A): no binding (tested: 100 nM)
B2: anti-CD161 KW17 (antibody, V domains shown)
VH: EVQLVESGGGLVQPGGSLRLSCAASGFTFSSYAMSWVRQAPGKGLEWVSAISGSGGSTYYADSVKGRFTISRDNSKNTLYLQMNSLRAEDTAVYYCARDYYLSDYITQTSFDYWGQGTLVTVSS
VL: QSVLTQPPSVSGAPGQRVTISCTGSSSNIGAGYDVHWYQQLPGTAPKLLIYGNSNRPSGVPDRFSGSKSGTSASLAITGLQAEDEADYYCQSYDSSHTVFGGGTQLTVL
notes: Human, lambda light chain; scFv-Fc or full IgG not clear; also called KW17-Fc

binding result (Human KLRF1): no binding (tested: 100 nM) | binding result (Human CD94): no binding (tested: 100 nM) | binding result (Human KLRF2): no binding (tested: 100 nM) | binding result (Human Clec12B): no binding (tested: 100 nM) | binding result (Human Clec7A): no binding (tested: 100 nM) | binding result (Human KLRG1): no binding (tested: 100 nM) | binding result (Human OLR1): no binding (tested: 100 nM) | binding result (Human Clec5A): no binding (tested: 100 nM) | binding result (Human Clec9A): no binding (tested: 100 nM) | binding result (Human CD209): no binding (tested: 100 nM) | binding result (Human Clec4E): no binding (tested: 100 nM) | binding result (Human Clec10A): no binding (tested: 100 nM)
B3: KW17.3.4 (antibody, V domains shown)
VH: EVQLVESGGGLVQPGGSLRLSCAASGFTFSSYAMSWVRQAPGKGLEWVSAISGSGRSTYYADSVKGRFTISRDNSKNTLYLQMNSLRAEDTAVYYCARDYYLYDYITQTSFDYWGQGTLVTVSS
VL: B2 VL with K68Q, D94N, S96G
